{
  "source": "paper PMC10837153",
  "about": "“A structural vista of phosducin-like PhLP2A-chaperonin TRiC cooperation during the ATP-driven folding cycle” (Nature Communications, 2024)",
  "key": {"[1]": {"biological_target": "human TRiC (TCP-1 ring complex), his-tagged, CCT1 tagged with GFP (human) (UniProt P17987)", "test": "cryo-EM structure; TRiC (2 mg/ml) sequentially incubated with PFD and PhLP2A in 1:2:~1, each 20 min at RT, with 1 mM AMP-PNP; 3D-focused classification"}, "[2]": {"biological_target": "human TRiC (TCP-1 ring complex), his-tagged, CCT1 tagged with GFP (human) (UniProt P17987)", "test": "native gel or EMSA; native PAGE mobility shift; 0.25 μM open TRiC, PhLP2A 0.01-10 μM, ATPase buffer (30 mM Tris pH 7.4, 120 mM KCl, 5 mM MgCl2, 1 mM DTT), about 30 min at room temperature; apparent Kd; three repetitions"}, "[3]": {"biological_target": "human TRiC (TCP-1 ring complex), his-tagged, CCT1 tagged with GFP (human) (UniProt P17987)", "test": "native gel or EMSA; competition: unlabeled PhLP2A (0.01-10 μM) added to GFP-TRiC (0.25 μM) pre-incubated with AF-647 labeled PFD (1 μM); Native PAGE 4-16%, in-gel fluorescence"}, "[4]": {"biological_target": "human TRiC (TCP-1 ring complex), his-tagged, CCT1 tagged with GFP (human) (UniProt P17987)", "test": "cryo-EM structure; closed TRiC: TRiC (0.8 mg/ml) with PhLP2A 1:4 for 30 min, then 1 mM ATP, 1 mM Al3(NO3)3, 6 mM NaF, 10 mM MgCl2, 50 mM KCl, 1 h at RT"}, "[5]": {"biological_target": "human TRiC (TCP-1 ring complex), his-tagged, CCT1 tagged with GFP (human) (UniProt P17987)", "test": "cryo-EM structure; open TRiC (2 mg/ml) with each truncated PhLP2A mutant (TXD, NTD-TXD, TXD-CTD) in 1:2 molar ratio, 20 min at RT"}, "[6]": {"biological_target": "T1, human TRiC subunit CCT4 (human, UniProt P50991 1-539)", "T1 construct": "TRiC subunit CCT4, human; Subunit of m2, seen only within the TRiC complex; source: High Five insect cells, purified as a subunit of TRiC", "T1 sequence": "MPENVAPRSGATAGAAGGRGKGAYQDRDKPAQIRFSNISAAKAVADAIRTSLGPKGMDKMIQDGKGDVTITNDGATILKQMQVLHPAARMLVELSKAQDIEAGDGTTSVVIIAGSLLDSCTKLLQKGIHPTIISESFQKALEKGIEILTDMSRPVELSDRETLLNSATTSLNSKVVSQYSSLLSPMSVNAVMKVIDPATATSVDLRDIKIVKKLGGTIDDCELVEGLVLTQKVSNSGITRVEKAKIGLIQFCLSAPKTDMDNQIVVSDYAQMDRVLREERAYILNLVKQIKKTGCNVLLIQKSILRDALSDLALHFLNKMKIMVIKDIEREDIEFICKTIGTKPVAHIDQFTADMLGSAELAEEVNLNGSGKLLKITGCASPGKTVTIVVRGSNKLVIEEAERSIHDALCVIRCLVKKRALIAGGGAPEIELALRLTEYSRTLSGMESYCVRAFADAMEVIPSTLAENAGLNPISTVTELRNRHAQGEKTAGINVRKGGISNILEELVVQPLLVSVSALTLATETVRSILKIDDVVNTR", "test": "cryo-EM structure; open TRiC (2 mg/ml) with each truncated PhLP2A mutant (TXD, NTD-TXD, TXD-CTD) in 1:2 molar ratio, 20 min at RT", "conditions": "both partners purified"}, "[7]": {"biological_target": "T2, human TRiC subunit CCT3 (human, UniProt P49368 1-545)", "T2 construct": "TRiC subunit CCT3, human; Subunit of m2, seen only within the TRiC complex; source: High Five insect cells, purified as a subunit of TRiC", "T2 sequence": "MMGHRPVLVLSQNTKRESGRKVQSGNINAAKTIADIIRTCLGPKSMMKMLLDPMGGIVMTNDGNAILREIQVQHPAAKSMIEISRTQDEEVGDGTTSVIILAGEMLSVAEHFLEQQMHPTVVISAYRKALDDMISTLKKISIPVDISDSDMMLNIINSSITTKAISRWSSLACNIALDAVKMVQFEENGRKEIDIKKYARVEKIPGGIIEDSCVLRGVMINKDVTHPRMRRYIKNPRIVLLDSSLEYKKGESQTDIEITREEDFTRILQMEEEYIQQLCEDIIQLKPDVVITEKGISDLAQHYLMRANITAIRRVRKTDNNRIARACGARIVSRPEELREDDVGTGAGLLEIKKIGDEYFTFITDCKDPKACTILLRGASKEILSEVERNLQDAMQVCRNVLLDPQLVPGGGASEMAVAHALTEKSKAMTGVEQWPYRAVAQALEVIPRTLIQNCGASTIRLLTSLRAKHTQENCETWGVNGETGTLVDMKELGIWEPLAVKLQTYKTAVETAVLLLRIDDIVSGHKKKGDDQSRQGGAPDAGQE", "test": "cryo-EM structure; open TRiC (2 mg/ml) with each truncated PhLP2A mutant (TXD, NTD-TXD, TXD-CTD) in 1:2 molar ratio, 20 min at RT", "conditions": "both partners purified"}, "[8]": {"biological_target": "human TRiC (TCP-1 ring complex), his-tagged, CCT1 tagged with GFP (human) (UniProt P17987)", "test": "cryo-EM structure; closed TRiC: TRiC (0.8 mg/ml) with each truncated PhLP2A mutant (TXD, NTD-TXD, TXD-CTD) 1:2 for 20 min, then 1 mM ATP, 6 mM NaF, 10 mM MgCl2, 50 mM KCl, 1 h at RT"}},
  "data": [
    {"molecule": "human Prefoldin (from UniProt O15212 1-129) (complex)", "values": [
      {"measurement": "percent of TRiC particles with PFD bound (3D classification)", "setting": "[1]", "result": 25, "unit": "%"}
    ]},
    {"molecule": "human PhLP2A (phosducin-like protein 2A), full length (natural protein, AF-568 (Alexa568) label, site not stated, only in the native PAGE mobility shift and competition assays) MQDPNADTEWNDILRKKGILPPKESLKELEEEAEEEQRILQQSVVKTYEDMTLEELEDHEDEFNEEDERAIEMYRRRRLAEWKATKLKNKFGEVLEISGKDYVQEVTKAGEGLWVILHLYKQGIPLCALINQHLSGLARKFPDVKFIKAISTTCIPNYPDRNLPTIFVYLEGDIKAQFIGPLVFGGMNLTRDELEWKLSESGAIMTDLEENPKKPIEDVLLSSVRRSVLMKRDSDSEGD", "values": [
      {"measurement": "Kd", "setting": "[2]", "result": 170, "unit": "nM"},
      {"measurement": "percent of TRiC particles with PhLP2A bound (3D classification)", "setting": "[1]", "result": 22.9, "unit": "%"},
      {"measurement": "percent of TRiC-bound PFD displaced", "setting": "[3]", "result": "< 70", "unit": "%"},
      {"measurement": "percent of closed TRiC particles with PhLP2A in both chambers", "setting": "[4]", "result": 9.5, "unit": "%"},
      {"measurement": "percent of closed TRiC particles with PhLP2A in one chamber", "setting": "[4]", "result": 14, "unit": "%"}
    ]},
    {"molecule": "PhLP2A NTD-TXD (aa 1–211), CTD truncation (domain or fragment, human, UniProt Q9H2J4 1-211, looked up, PhLP2A, human, NTD and TXD, aa 1-211; also called N + TXT fragment; source: E. coli BL21 Rosetta2 pLysS, purified (nickel resin, SDX200); not shown: His6 (encoded by the 3' primer), C-terminal, kept) MQDPNADTEWNDILRKKGILPPKESLKELEEEAEEEQRILQQSVVKTYEDMTLEELEDHEDEFNEEDERAIEMYRRRRLAEWKATKLKNKFGEVLEISGKDYVQEVTKAGEGLWVILHLYKQGIPLCALINQHLSGLARKFPDVKFIKAISTTCIPNYPDRNLPTIFVYLEGDIKAQFIGPLVFGGMNLTRDELEWKLSESGAIMTDLEEN", "values": [
      {"measurement": "percent of TRiC particles with NTD-TXD density in the chamber", "setting": "[5]", "result": 19.8, "unit": "%"},
      {"measurement": "binding result", "setting": "[6]", "result": "binds"},
      {"measurement": "binding result", "setting": "[7]", "result": "binds"},
      {"measurement": "percent of closed TRiC particles with NTD-TXD density in the chamber", "setting": "[8]", "result": 8.25, "unit": "%"}
    ]},
    {"molecule": "PhLP2A TXD-CTD (aa 85–239), NTD truncation (domain or fragment, human, UniProt Q9H2J4 85-239, looked up, PhLP2A, human, TXD and CTD, aa 85-239; the 5' primer translates to M-KLKNKFG; also called TXT-C term; source: E. coli BL21 Rosetta2 pLysS, purified (nickel resin, SDX200); not shown: His6 (encoded by the 3' primer), C-terminal, kept) TKLKNKFGEVLEISGKDYVQEVTKAGEGLWVILHLYKQGIPLCALINQHLSGLARKFPDVKFIKAISTTCIPNYPDRNLPTIFVYLEGDIKAQFIGPLVFGGMNLTRDELEWKLSESGAIMTDLEENPKKPIEDVLLSSVRRSVLMKRDSDSEGD", "values": [
      {"measurement": "binding result", "setting": "[7]", "result": "binds"}
    ]}
  ]
}
